Biological target: nat1_yeast NAT1 (UniProt P12945)
Sequence (P12945 whole entry): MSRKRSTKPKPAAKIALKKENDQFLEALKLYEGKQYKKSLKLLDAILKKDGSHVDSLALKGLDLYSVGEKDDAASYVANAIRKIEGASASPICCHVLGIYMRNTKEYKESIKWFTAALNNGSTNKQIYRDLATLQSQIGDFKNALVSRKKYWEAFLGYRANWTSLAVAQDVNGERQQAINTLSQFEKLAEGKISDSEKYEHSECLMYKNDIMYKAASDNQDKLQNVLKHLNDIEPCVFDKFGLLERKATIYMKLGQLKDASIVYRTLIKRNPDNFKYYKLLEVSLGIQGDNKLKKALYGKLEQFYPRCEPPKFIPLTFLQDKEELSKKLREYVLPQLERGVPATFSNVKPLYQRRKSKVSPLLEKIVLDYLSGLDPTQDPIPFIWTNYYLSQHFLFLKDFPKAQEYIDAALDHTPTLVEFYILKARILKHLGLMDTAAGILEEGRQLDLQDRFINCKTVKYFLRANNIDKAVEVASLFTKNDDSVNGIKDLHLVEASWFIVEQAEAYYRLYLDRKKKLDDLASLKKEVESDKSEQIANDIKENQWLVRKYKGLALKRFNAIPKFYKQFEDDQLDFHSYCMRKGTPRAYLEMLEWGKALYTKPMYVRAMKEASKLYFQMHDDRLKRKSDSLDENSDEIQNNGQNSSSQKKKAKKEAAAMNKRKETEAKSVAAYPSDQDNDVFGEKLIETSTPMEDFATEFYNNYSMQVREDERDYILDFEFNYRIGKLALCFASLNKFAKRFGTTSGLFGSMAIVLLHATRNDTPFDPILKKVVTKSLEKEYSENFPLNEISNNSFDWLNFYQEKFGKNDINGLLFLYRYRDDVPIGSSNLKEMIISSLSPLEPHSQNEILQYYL

Sequence of Large ribosomal subunit protein uL4A (Saccharomyces cerevisiae), P10664 S2K (P10664 whole entry S2K): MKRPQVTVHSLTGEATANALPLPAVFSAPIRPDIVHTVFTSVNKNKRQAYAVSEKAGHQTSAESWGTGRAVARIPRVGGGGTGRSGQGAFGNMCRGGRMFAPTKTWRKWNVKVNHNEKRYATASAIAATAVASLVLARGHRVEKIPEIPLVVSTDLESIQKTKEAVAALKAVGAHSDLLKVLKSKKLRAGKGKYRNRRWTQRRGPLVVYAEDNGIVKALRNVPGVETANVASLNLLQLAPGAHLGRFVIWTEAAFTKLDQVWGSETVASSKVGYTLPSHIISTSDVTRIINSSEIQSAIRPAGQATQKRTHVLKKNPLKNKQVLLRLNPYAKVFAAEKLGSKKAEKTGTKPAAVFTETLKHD

Large ribosomal subunit protein uL4A (Saccharomyces cerevisiae), P10664 S2K
effect of a mutation on the interaction: increasing interaction

Reference: IntAct's records for PubMed 14517307
